Experimental data reported in the supplement of paper PMC9233669.
Variants at the floor of the assay were thinned out.

How the values were obtained:
biotinyl-Leu-oxazolone = test: self-aminoacylation, catalytic enhancement (BLO) (fold over background); higher = more active; k-Seq, kA / k0A0; sequences stand for … in GGGAAUGGAUCCACAUCUACGAAUUC…UUCACUGCAGACUUGACGAAGCUG
Procedure, shortened: (§1)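 Working in 50 μL HEPES/NaCl/KCl/MgCl2/CaCl2 buffer with 5% acetonitrile at pH 6.9–7.0, mutagenized RNA pools (0.43 μM; 21-nt variable region) were reacted with 2–1250 μM of each biotinyl-aminoacyl-oxazolone for 90 minutes at room temperature. Streptavidin capture followed, with quantification by triplicate qPCR and Illumina sequencing. Catalytic enhancement is reported as median kA over the uncatalyzed rate, the low-activity peak of a bimodal Gaussian fit to the data.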

biotinyl-Met-oxazolone = test: self-aminoacylation, catalytic enhancement (BMO) (fold over background); higher = more active; k-Seq, kA / k0A0; sequences stand for … in GGGAAUGGAUCCACAUCUACGAAUUC…UUCACUGCAGACUUGACGAAGCUG
Procedure, shortened: as §1

biotinyl-Val-oxazolone = test: self-aminoacylation, catalytic enhancement (BVO) (fold over background); higher = more active; k-Seq, kA / k0A0; sequences stand for … in GGGAAUGGAUCCACAUCUACGAAUUC…UUCACUGCAGACUUGACGAAGCUG
Procedure, shortened: as §1

biotinyl-Phe-oxazolone = test: self-aminoacylation, catalytic enhancement (BFO) (fold over background); higher = more active; k-Seq, kA / k0A0; sequences stand for … in GGGAAUGGAUCCACAUCUACGAAUUC…UUCACUGCAGACUUGACGAAGCUG
Procedure, shortened: as §1

biotinyl-Trp-oxazolone = test: self-aminoacylation, catalytic enhancement (BWO) (fold over background); higher = more active; k-Seq, kA / k0A0; sequences stand for … in GGGAAUGGAUCCACAUCUACGAAUUC…UUCACUGCAGACUUGACGAAGCUG
Procedure, shortened: as §1

biotinyl-Ile-oxazolone = test: self-aminoacylation, catalytic enhancement (BIO) (fold over background); higher = more active; k-Seq, kA / k0A0; sequences stand for … in GGGAAUGGAUCCACAUCUACGAAUUC…UUCACUGCAGACUUGACGAAGCUG
Procedure, shortened: as §1

| Sequence | self-aminoacylation (biotinyl-Leu-oxazolone) | self-aminoacylation (biotinyl-Met-oxazolone) | self-aminoacylation (biotinyl-Val-oxazolone) | self-aminoacylation (biotinyl-Phe-oxazolone) | self-aminoacylation (biotinyl-Trp-oxazolone) | self-aminoacylation (biotinyl-Ile-oxazolone) |
| --- | --- | --- | --- | --- | --- | --- |
| AUGACGCUGGUCAUCGAGUGA [Fam2.1 aminoacylation ribozyme variant] | 5.8 | 6.65 | 3.4 | 36.8 | 7.12 | 3.6 |
| AUGCACCCAGGUCAUCGGGUG [Fam2.2 aminoacylation ribozyme variant] | 4.35 | 3.42 | 3.89 | 21 | 5.32 | 3.29 |
| AUGCACCGAGGUCAUCGGGUG [Fam2.2 aminoacylation ribozyme variant] | 6.58 | 5.79 | 3.66 | 40.4 | 6.46 | 3.81 |
| AUGCACCUAAGUCAUCGGGUG [Fam2.2 aminoacylation ribozyme variant] | 10.5 | 8.76 | 4.84 | 58.2 | 8.67 | 5.66 |
| AUGCACCUAGGCCAUCGGGUG [Fam2.2 aminoacylation ribozyme variant] | 4.53 | 3.87 | 3.41 | 27.6 | 4.46 | 3.32 |
| AUGCACCUAGGUCAGCGGGUG [Fam2.2 aminoacylation ribozyme variant] | 4.65 | 3.65 | 3.02 | 18.1 | 5.27 | 3.27 |
| AUGCACCUAGGUCAUCGCGUG [Fam2.2 aminoacylation ribozyme variant] | 12 | 8.45 | 5.84 | 56 | 11 | 5.09 |
| AUGCACUUAGGUCAUCGGGUG [Fam2.2 aminoacylation ribozyme variant] | 10.6 | 8.73 | 5.03 | 62.8 | 7.92 | 5.29 |
| AUGCCCCUAGGUCAUCGGGUG [Fam2.2 aminoacylation ribozyme variant] | 11.1 | 8.48 | 5.39 | 63.9 | 7.6 | 5.52 |
| AUGUUUGCUAAAAGUCGCAAG [Fam3.1 aminoacylation ribozyme variant] | 1.83 | 1.69 | 1.47 | 4.95 | 2.45 | 1.56 |
| AUGUUUGCUAAUAGUGGCAAG [Fam3.1 aminoacylation ribozyme variant] | 0.588 | 0.483 | 0.643 | 1.22 | 0.491 | 0.646 |
| AUGUUUGGUAAUAGUCGCAAG [Fam3.1 aminoacylation ribozyme variant] | 1.84 | 1.79 | 1.51 | 3.16 | 2.15 | 1.92 |
| AUUAAACUGGUCAUCGAGUGA [Fam2.1 aminoacylation ribozyme variant] | 4.35 | 4.15 | 2.42 | 4.94 | 6.94 | 2.71 |
| AUUAACCCAGGUCAUCGGGUG [Fam2.2 aminoacylation ribozyme variant] | 8.17 | 6.61 | 3.58 | 36.2 | 5.58 | 4.38 |
| AUUAACCGAGGUCAUCGGGUG [Fam2.2 aminoacylation ribozyme variant] | 7.86 | 7.9 | 5.32 | 48.9 | 7.45 | 4.6 |
| AUUAACCUAAGUCAUCGGGUG [Fam2.2 aminoacylation ribozyme variant] | 12.1 | 8.41 | 4.74 | 63.5 | 7.95 | 4.9 |
| AUUAACCUAGGUCAACGGGUG [Fam2.2 aminoacylation ribozyme variant] | 3.59 | 3.36 | 1.89 | 20.5 | 3 | 2.13 |
| AUUAACCUAGGUCAUCGCGUG [Fam2.2 aminoacylation ribozyme variant] | 10.2 | 6.95 | 4.66 | 59.2 | 7.14 | 4.57 |
| AUUAACCUAGGUCAUCGGGCG [Fam2.2 aminoacylation ribozyme variant] | 5.44 | 3.99 | 2.63 | 4.51 | 2.17 | 2.55 |
| AUUAACCUAGGUCAUCGGGGG [Fam2.2 aminoacylation ribozyme variant] | 3.88 | 3.77 | 2.1 | 3.87 | 2.88 | 2.68 |
| AUUAACCUAGGUCAUCGGGUG [Fam2.2 aminoacylation ribozyme variant] | 46.3 | 33.2 | 15.8 | 248 | 22.8 | 19.7 |
| AUUAACCUAGUCAUCGAGUGA [Fam2.1 aminoacylation ribozyme variant] | 5.13 | 4.95 | 2.96 | 15.5 | 7.12 | 2.94 |
| AUUAACCUGAUCAUCGAGUGA [Fam2.1 aminoacylation ribozyme variant] | 10.2 | 9.97 | 4.67 | 41.3 | 13.7 | 4.54 |
| AUUAACCUGGGUCAUCGGGUG [Fam2.2 aminoacylation ribozyme variant] | 15.6 | 13.4 | 6.35 | 39.6 | 11.4 | 6.99 |
| AUUAACCUGGUCACCGAGUGA [Fam2.1 aminoacylation ribozyme variant] | 8.22 | 6.76 | 3.69 | 40.8 | 7.92 | 3.88 |
| AUUAACCUGGUCAGCGAGUGA [Fam2.1 aminoacylation ribozyme variant] | 4.19 | 4.41 | 2.81 | 19.5 | 4.66 | 2.57 |

| Sequence | self-aminoacylation (biotinyl-Leu-oxazolone) | self-aminoacylation (biotinyl-Met-oxazolone) | self-aminoacylation (biotinyl-Val-oxazolone) | self-aminoacylation (biotinyl-Phe-oxazolone) | self-aminoacylation (biotinyl-Trp-oxazolone) | self-aminoacylation (biotinyl-Ile-oxazolone) |
| --- | --- | --- | --- | --- | --- | --- |
| AUUAACCUGGUCAUCGAGAGA [Fam2.1 aminoacylation ribozyme variant] | 0.844 | 0.749 | 0.783 | 0.933 | 0.872 | 0.888 |
| AUUAACCUGGUCAUCGCGUGA [Fam2.1 aminoacylation ribozyme variant] | 19.1 | 17.2 | 7.74 | 126 | 21.5 | 8.07 |
| AUUAACCUUGGUCAUCGGGUG [Fam2.2 aminoacylation ribozyme variant] | 8.28 | 6.37 | 4.16 | 41.7 | 7.04 | 3.91 |
| AUUAACGUAGGUCAUCGGGUG [Fam2.2 aminoacylation ribozyme variant] | 3.84 | 4.05 | 3.05 | 42.1 | 3.61 | 2.52 |
| AUUAACGUGGUCAUCGAGUGA [Fam2.1 aminoacylation ribozyme variant] | 4.72 | 4.88 | 2.75 | 18.6 | 6.07 | 2.95 |
| AUUAACUUGGUCAUCGAGUGA [Fam2.1 aminoacylation ribozyme variant] | 4.16 | 3.67 | 2.48 | 3.99 | 4.83 | 2.9 |
| AUUACACUGAUCAUCGAGUGA [Fam2.1 aminoacylation ribozyme variant] | 6.95 | 6.59 | 3.71 | 21.1 | 7.71 | 3.19 |
| AUUACACUGGUCACCGAGUGA [Fam2.1 aminoacylation ribozyme variant] | 5.41 | 5.29 | 2.91 | 24.5 | 7.35 | 2.95 |
| AUUACACUGGUCAUCGACUGA [Fam2.1 aminoacylation ribozyme variant] | 0.807 | 0.596 | 0.965 | 1.11 | 0.546 | 1 |
| AUUACACUGGUCAUCGAGGGA [Fam2.1 aminoacylation ribozyme variant] | 1.4 | 1.26 | 1.37 | 0.709 | 2.72 | 1.64 |
| AUUACACUGGUCAUCGAGUGC [Fam2.1 aminoacylation ribozyme variant] | 1.38 | 1.32 | 1.05 | 0.887 | 1.56 | 1.06 |
| AUUACACUGGUCAUCGAGUGU [Fam2.1 aminoacylation ribozyme variant] | 2.47 | 2.61 | 1.66 | 2.05 | 3.07 | 1.73 |
| AUUACACUGGUCAUCUAGUGA [Fam2.1 aminoacylation ribozyme variant] | 6.24 | 5.64 | 2.65 | 35 | 6.76 | 3.07 |
| AUUACACUGGUCGUCGAGUGA [Fam2.1 aminoacylation ribozyme variant] | 1.44 | 1.14 | 1.38 | 2.53 | 0.958 | 1.25 |
| AUUACACUGGUUAUCGAGUGA [Fam2.1 aminoacylation ribozyme variant] | 8.73 | 7.64 | 3.72 | 45.5 | 10.3 | 4.23 |
| AUUACAUUGGUCAUCGAGUGA [Fam2.1 aminoacylation ribozyme variant] | 5.8 | 5.35 | 2.95 | 22.8 | 6.85 | 3.03 |
| AUUACCAUGGUCAUCAAGUGA [Fam2.1 aminoacylation ribozyme variant] | 4.04 | 3.69 | 2.4 | 5.16 | 5.09 | 2.22 |
| AUUACCAUGGUCAUCGAGUCA [Fam2.1 aminoacylation ribozyme variant] | 0.823 | 0.695 | 0.778 | 0.683 | 0.451 | 0.821 |
| AUUACCAUGGUCAUCGGGUGA [Fam2.1 aminoacylation ribozyme variant] | 13.6 | 14.7 | 7.28 | 96 | 16.2 | 6.52 |
| AUUACCAUGGUCAUCGUGUGA [Fam2.1 aminoacylation ribozyme variant] | 4.26 | 4.58 | 2.2 | 27.8 | 5.96 | 1.9 |
| AUUACCAUGGUCAUCUAGUGA [Fam2.1 aminoacylation ribozyme variant] | 11.1 | 11.1 | 5.38 | 59.9 | 15.6 | 5.41 |
| AUUACCAUGGUCAUGGAGUGA [Fam2.1 aminoacylation ribozyme variant] | 5.78 | 5.25 | 3.34 | 24.3 | 7.35 | 3.74 |
| AUUACCAUGGUUAUCGAGUGA [Fam2.1 aminoacylation ribozyme variant] | 10.6 | 9.62 | 4.79 | 69.6 | 12.2 | 4.38 |
| AUUACCCAGCUCAUCGAGUGA [Fam2.1 aminoacylation ribozyme variant] | 1.52 | 1.54 | 1.56 | 1.01 | 1.32 | 1.47 |
| AUUACCCAGGUCACCGAGUGA [Fam2.1 aminoacylation ribozyme variant] | 10.2 | 8.63 | 4.49 | 66.2 | 10.3 | 4.17 |
